Data taken from patent publication EP3083697B1.

Tests used:
[1] = molecular target: ENO1 deletion mutant Δ1-189 (human) (UniProt P06733); experiment: ELISA, mutant protein coated, 10 microgram EN10 mAb
[2] = molecular target: ENO1 deletion mutant Δ1-297 (human) (UniProt P06733); experiment: as above

B1: EN10 mAb (antibody, V domains shown)
VH: EVQLQQSGPELVKPGASVKMSCKASGYTFTSCVMNWVKQKPGQGLEWIGYINPYNDGTKYNEKFKGKATLTSDKSSSTAYMELSSLTSEDSAVYYCAREGFYYGNFDNWGQGTTLTVSS
VL: DIQMTQSPASLSASVGETVTITCRASENIYSYLTWYQQKQGKSPQLLVYNAKTLPEGVPSRFSGSGSGTQFSLKINSLQPEDFGSYYCQHHYGTPYTFGGGTKLEITR
- OD405 [1]: 1.43 OD405
- percent of the OD405 of wild type ENO1 [1]: 42%
- OD405 [2]: 1.56 OD405
- percent of the OD405 of wild type ENO1 [2]: 39%
